Here are results for two substances from patent US20040043949A1.

Assay [1] deals with modified BID with an HCV NS3 cleavage site (human) (UniProt P55957). In words: cell-based or functional assay.
Assay [2] addresses Mod.Caspase 3/172(NS5A/B) (human) (UniProt P42574). Description: cell-based or functional assay.

In assay [1], “single-chain HCV protease (NS4A-NS3) (from UniProt P27958 1678-1689; P27958 1029-1207) (enzyme)” came in with an AnnexinV positive H9C2 cells, FACS, 24 hours (% more cells than control) of 50 and an AnnexinV positive H9C2 cells, FACS, 24 hours, no VAD-fmk of 60%.
For the substance “HCV NS3/NS4A protease (from UniProt P27958 1027-1657; P27958 1658-1711) (enzyme)”, the cell death, FACS analysis of living EGFP positive CHOP cells, (+) NS3 Protease in assay [1] and in assay [2] was greater than 30 % cell death in each case.
